Results on one molecule are retold here after patent US8691225B2, “Antibodies against the ectodomain of ErbB3 and uses thereof” (Merrimack Pharmaceuticals, Inc., priority 2007, dated 2014).

For one data set, the system named is renal (ACHN) xenograft. Kind of data set: xenograft tumor growth in nude mice. The data set is classed as in vivo, mouse. Particulars: 600 ug Q3d versus 300 ug.
Another data set deals with MCF-7 cells. The data set can be described thus: trans-well cell migration assay. The data set is classed as cell-based, human. Particulars: 8 uM Ab #6, 10% FBS chemoattractant, 16 hours. As to the method: The cells are then transferred to an upper chamber that is separated from a lower chamber by a collagen type I-coated membrane through which the cells can migrate. […] The chambers are incubated at 37° C. for 16 hours and then the cells that migrate through the membrane into the lower chamber are removed using a detachment buffer and incubated with a cell-binding fluorescent dye. Fluorescence is quantitated using a fluorescent plate reader.

Data set [1] concerns ErbB3 phosphorylation in OVCAR 5. Kind of data set: ErbB3 phosphorylation ELISA in ovarian tumor cell line. Format: cell-based, human. To be noted: IgG2 isotype. The protocol: (§1) All ELISA reagents for the total and phospho-ErbB3 ELISAs are purchased from R&D Systems as DUOSET kits. 96-well NUNC MAXISORB plates are coated with 50 uL of an antibody and incubated overnight at room temperature. Next morning, plates are washed 3 times with […] in the BIOTEK plate washer with Dulbecco's phosphate buffered saline without calcium or magnesium (PBS) with added Tween detergent (PBST) (0.05% Tween-20). […] The plates are washed 3 times with […] in the BIOTEK plate washer with PBST (0.05% Tween-20). 50 μL of cell lysates and standards diluted in 50% Lysis buffer and 1% BSA are used in duplicates for further processing. Samples are incubated for 2 hrs at 4° C. on a plate shaker and washed as before. About 50 μl of a detection antibody diluted in 2% BSA, PBST is added and incubated for about 1 hr at room temperature. For phosphor-ErbB3, the detection antibody is directly conjugated to horseradish peroxidase (HRP) and incubated for 2 hrs at room temperature. The plate is washed as before. About 50 μl of Streptavidin-HRP is added and incubate for 30 min at room temperature (except for pErbB3). The plates are washed as before. About 50 μL of SUPERSIGNAL ELISA Pico (Thermo Scientific) substrate is added and the plate is read using a FUSION plate reader. The data are analyzed using EXCEL. […]
In general terms: An ELISA detects its analyte on a solid surface through an enzyme-linked reagent.

The test system of data set [2] is ErbB3 phosphorylation in OVCAR 8. Described as above. Format: cell-based, human. Particulars: IgG2 isotype. The protocol:
as §1

Data set [3] has as its system ACHN (a renal tumor cell line) xenograft tumors. The data set can be described thus: ACHN xenograft combination therapy. The data set is classed as in vivo, mouse. Particulars: Ab #6 300 μg IP every three days; erlotinib 25 mg/kg orally once daily. As to the method: In a first experiment, mice bearing ACHN (a renal tumor cell line) xenograft tumors are prepared by establishing tumors subcutaneously in the flanks of nude mice (Charles River Laboratories).

Another data set deals with AdrR (ovarian) xenograft. Kind of data set: xenograft tumor growth in nude mice. To be noted: 300 ug every three days (Q3d); p<0.05. The data set is classed as in vivo, mouse. The protocol: (§2) For example, T-cell deficient nu/nu mice (3-4 week old female mice originated at NIH; outbred; albino background) are purchased from Charles River Labs (Wilmington, Mass.) for xenograft studies. AdrR cells for implantation are grown in culture (RPMI media, 10% FBS, L-glutamine and antibiotics, 37° C., 5% CO2) to about 85% confluency before harvesting. Cells are kept on ice until implantation. Mice are implanted via subcutaneous injection with 100 μl AdrR cells (6×10^6 cells in PBS) on the right flank and allowed to recover while being monitored for initial tumor growth.
(§3) Tumors are measured (length by width) by digital caliper and the mice are dosed with IgG2a (Sigma, M7769-5MG) by intravenous injection.
(§4) Final tumor measurements (L×W) are taken, the mice are euthanized by CO2 asphyxiation and tumors are excised, snap frozen in liquid nitrogen, and are stored at −80° C. (for biochemical analysis). Final tumor measurements are analyzed and graphed by tumor area and tumor volume, as described in Burtrum et al., supra. The data are also analyzed by “normalized” and “non-normalized” means for both tumor volume and tumor area. For the “normalization” of the data, at each time point of measurement, each tumor in each group is divided by the initial tumor size determined by caliper measurement.

Data set [4] deals with OvCAR8 (ovarian) xenograft. The data set can be described thus: xenograft tumor growth in nude mice. Format: in vivo, mouse. The protocol:
as §2, §3, §4

Data set [5] can be described thus: PK analyses of serum and intra-tumoral levels from xenograft studies. The data set is classed as in vivo, mouse. Particulars: serum from animals of the xenograft studies. An excerpt: The data (obtained using the methods described above or minor variations thereof) from three different models derived from human tumor cell lines, AdrR (ovarian), Du145 (prostate) and OvCAR8 (ovarian) data are shown in FIGS. 17A-C and Colo357 (pancreatic) xenograft study data are shown in FIG. 17D.

For data set [6], the system named is ErbB3 phosphorylation in ovarian AdrR cells. The data set can be described thus: BTC or HRG induced ErbB3 phosphorylation in AdrR cells in vitro. Format: cell-based, human. As to the method: Following pre incubation, the media are removed and the cells are stimulated for 5 minutes at 37° C., 5% CO2 with 50 nM BTC or 333 nM TGF-α. HRG controls (5 minutes, 5 nM), 10% serum and 0% serum controls are also used. Cells are washed with 1× cold PBS and lysed in 30 μl cold lysis buffer (M-PER buffer (Pierce) plus sodium vanadate (NaVO4, Sigma), 2-glycerophosphate, phenylarsine oxide, BpV and protease inhibitors) by incubating on ice for 30 minutes. Lysates are stored overnight at −80° C.

B1: Ab #6: human anti-ErbB3 antibody from Fab-phage library, CDRs SEQ ID NOs:7-12; used as IgG1 and IgG2 isotypes; in phase I trials as MM-121 (antibody, V domains shown)
VH: EVQLLESGGGLVQPGGSLRLSCAASGFTFSHYVMAWVRQAPGKGLEWVSSISSSGGWTLYADSVKGRFTISRDNSKNTLYLQMNSLRAEDTAVYYCTRGLKMATIFDYWGQGTLVTVSS
VL: QSALTQPASVSGSPGQSITISCTGTSSDVGSYNVVSWYQQHPGKAPKLIIYEVSQRPSGVSNRFSGSKSGNTASLTISGLQTEDEADYYCCSYAGSSIFVIFGGGTKVTVL
Regarding B1, the “inhibition of tumor growth” value with renal (ACHN) xenograft is reported as “further elevated”; in the data set on AdrR (ovarian) xenograft, “significant inhibition of tumor growth”; in data set [4] (300 ug every three days (Q3d), p<0.05) it was “significant inhibition of tumor growth”; in data set [4] (1500 ug Q3d versus 600 ug), “did not result in increased efficacy”. The “inhibition of FBS induced cell migration” value with MCF-7 cells is recorded as “inhibits the FBS induced cell migration”. The “inhibition of ErbB3 phosphorylation” value in data set [1] and in [2] was “inhibited ErbB3 phosphorylation” throughout. Further, the “inhibition of tumor growth (tumor volume)” value in [3] is given as “inhibit tumor growth”. Moreover, in data set [5], the serum retention result was “dose-dependent increase in the serum retention”. The “inhibition of betacellulin-mediated phosphorylation of ErbB3” value in data set [6] (BTC stimulation) was “significantly inhibited”. Besides, in data set [6] (HRG stimulation), the “inhibition of heregulin-mediated phosphorylation of ErbB3” value is on record as “significantly inhibited”.
